Results: patent US20240034757A1 (OXFORD UNIVERSITY INNOVATION, published 2024)
Like-named read-outs stand apart in the source and are kept apart here.

B1: P1080_IXORI (other)
chain: SAGSKGSSAPQSSGDSVVAEFCDTNCTMKKDGKWTECNGDCFCVHVGNETVGRCMRLDGDYDYTSSKTTRRNKKTRNGLCRLDRNRTTVDYPERNTREP
B2: P1174_IXORI (other)
chain: LNNENELFSVEYCGANCTQQDNGSWTKCKGNCTCYHEDGKRYGLCLSTEYTDFTQFPKPTSEEIADASPRPKETNSH
B3: P1128_IXORI (other)
chain: KDDEHFSVDYCGMNCTQQEDGSWTACSGRNEECRCYHESGKKNGLCLSTTYIDFSQYGNPSDSDIAAASPRP
B4: P1101_IXORI (other)
chain: HTTVAGSDEDIEVSYCGMNCTVESGKSSKCSPDCVCVHEGNERDGICISITYLGDLGNPLEDPSIDLATPLAPVFQSSK
B5: P1074_IXORI (other)
chain: GSKESSAHQSSDDSIKAEFCDAKCTMKTDGKWTQCHGGCFCVHVGNETEGRCMRLDGDYDYPSTQPEE
B6: P1168_IXORI (other)
chain: GQDTDGKEKSDEYELFTVEYCGTNCTQLENGSWTACTGKNGTCRCFHENDKKVGLCLSTEYTDFSEYPDPNSEEIKAASPLP
B7: P1127_IXORI (other)
chain: AGKDDEHFSVDYCGMNCTQQEDGSWTACSGRNGECRCYHESGKRSGLCLSTTYIDFSEYGNLSDSDIAAASPRLSMKESH
B8: P675_IXORI (other)
chain: GSNQLSGPQSSANSNDAVFCDTNCTQGTDGAWSGCRGDCFCVHVGNSTEGRCIELIGDFDYSTPGAED
B9: CCL7_HUMAN (ligand)
chain: not shown
B10: P942_IXORI (other)
chain: NQLSGPQSSANSNEAVFCDTNCTQGTDEAWSGCRGDCFCVYVGNSTEGRCMMLSGDFDYSTPGAED
B11: P1078_IXORI (other)
chain: GSKGSSAQQSSHDSIKAEFCETNCTMKTGGKWTQCHGGCFCVHVGNETVGRCIKLDGDYDYPSSKHEE

Experiments:
[1] = molecular target: T1, CXCL10_HUMAN (human, UniProt P02778 22-98); assay: yeast surface display FACS re-test; also: test concentration or dose not given here
T1 sequence: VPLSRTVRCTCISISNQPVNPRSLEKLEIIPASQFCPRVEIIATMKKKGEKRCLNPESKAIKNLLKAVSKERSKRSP

[2] = molecular target: T2, CXCL11_HUMAN (human, UniProt O14625 22-94); assay: yeast surface display FACS re-test; also: test concentration or dose not given here
T2 sequence: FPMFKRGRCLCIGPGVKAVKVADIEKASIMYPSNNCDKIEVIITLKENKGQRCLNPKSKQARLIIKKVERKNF

[3] = molecular target: T3, CXCL13_HUMAN (human, UniProt O43927 23-109); assay: BLI
T3 sequence: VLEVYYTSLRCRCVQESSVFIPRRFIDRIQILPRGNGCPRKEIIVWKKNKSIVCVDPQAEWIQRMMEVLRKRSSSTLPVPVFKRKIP

[4] = molecular target: T1, CXCL10_HUMAN; assay: BLI
[5] = molecular target: CXCL12_HUMAN (human, UniProt P48061 22-89); assay: BLI
[6] = molecular target: T4, CXCL14_HUMAN (human, UniProt O95715 35-111); assay: BLI
T4 sequence: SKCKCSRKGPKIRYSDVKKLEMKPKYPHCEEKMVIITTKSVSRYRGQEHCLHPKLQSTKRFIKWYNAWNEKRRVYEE

[7] = molecular target: T5, CXCL9_HUMAN (human, UniProt Q07325 23-125); assay: BLI
T5 sequence: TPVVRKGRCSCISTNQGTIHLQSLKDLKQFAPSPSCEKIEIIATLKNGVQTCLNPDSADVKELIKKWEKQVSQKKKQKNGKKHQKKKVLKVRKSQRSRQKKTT

[8] = molecular target: T6, CXCL8_HUMAN (human, UniProt P10145 28-99); assay: yeast surface display FACS re-test; also: test concentration or dose not given here
T6 sequence: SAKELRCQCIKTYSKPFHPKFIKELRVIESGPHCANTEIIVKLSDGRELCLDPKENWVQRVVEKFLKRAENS

[9] = molecular target: T7, CXCL6_HUMAN (human, UniProt P80162 38-114); assay: BLI [Cont.]
T7 sequence: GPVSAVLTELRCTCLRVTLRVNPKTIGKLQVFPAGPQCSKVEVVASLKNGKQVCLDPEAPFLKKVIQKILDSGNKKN

[10] = molecular target: T2, CXCL11_HUMAN; assay: BLI
[11] = molecular target: T6, CXCL8_HUMAN; assay: BLI [Cont.]
[12] = molecular target: T8, CXCL7_HUMAN (human, UniProt P02775 59-128); assay: BLI [Cont.]
T8 sequence: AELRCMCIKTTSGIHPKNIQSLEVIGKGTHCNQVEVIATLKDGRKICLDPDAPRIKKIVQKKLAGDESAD

[13] = molecular target: T9, CXCL1_HUMAN (human, UniProt P09341 35-107); assay: yeast surface display FACS re-test; also: test concentration or dose not given here
T9 sequence: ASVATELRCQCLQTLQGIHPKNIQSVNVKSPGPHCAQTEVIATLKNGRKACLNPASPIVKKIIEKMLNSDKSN

[14] = molecular target: T10, P983_AMBCA (Amblyomma cajennense, UniProt A0A023FFB5 22-119); assay: BLI
T10 sequence: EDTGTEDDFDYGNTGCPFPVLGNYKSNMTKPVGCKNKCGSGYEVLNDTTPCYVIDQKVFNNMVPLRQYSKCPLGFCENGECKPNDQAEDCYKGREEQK

[15] = molecular target: T11, P991_AMBCA (Amblyomma cajennense, UniProt A0A023FFD0 29-136); assay: BLI
T11 sequence: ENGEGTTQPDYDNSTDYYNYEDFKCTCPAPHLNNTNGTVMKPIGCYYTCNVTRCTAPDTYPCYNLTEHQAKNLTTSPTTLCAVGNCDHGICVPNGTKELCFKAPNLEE

[16] = molecular target: T12, P974_AMBCA (Amblyomma cajennense, UniProt A0A023FDY8 22-118); assay: BLI
T12 sequence: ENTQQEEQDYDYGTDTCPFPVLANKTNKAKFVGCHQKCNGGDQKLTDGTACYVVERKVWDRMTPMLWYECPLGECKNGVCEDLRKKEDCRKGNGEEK

[17] = molecular target: T13, P985_AMBPA (Amblyomma parvum, UniProt A0A023FT45 25-132); assay: BLI
T13 sequence: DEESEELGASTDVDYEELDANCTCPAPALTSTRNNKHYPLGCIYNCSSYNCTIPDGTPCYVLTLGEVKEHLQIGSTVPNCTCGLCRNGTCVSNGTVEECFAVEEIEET

[18] = molecular target: T14, P1183_AMBTR (Amblyomma triste, UniProt A0A023G9N9 26-115); assay: BLI
T14 sequence: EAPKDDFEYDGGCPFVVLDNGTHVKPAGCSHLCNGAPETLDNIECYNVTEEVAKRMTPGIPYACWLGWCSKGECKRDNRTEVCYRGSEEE

[19] = molecular target: T15, P467_RHIPU (Rhipicephalus pulchellus, UniProt L7M8Z8 22-127); assay: BLI
T15 sequence: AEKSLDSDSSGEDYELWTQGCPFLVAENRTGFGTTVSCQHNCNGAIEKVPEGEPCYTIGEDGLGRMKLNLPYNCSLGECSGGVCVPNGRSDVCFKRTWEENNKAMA

[20] = molecular target: T16, P1181_AMBMA (Amblyomma maculatum, UniProt G3MIX6 26-115); assay: BLI
T16 sequence: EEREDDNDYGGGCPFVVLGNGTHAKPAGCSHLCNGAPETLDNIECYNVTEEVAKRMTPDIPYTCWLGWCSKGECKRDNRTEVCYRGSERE

[21] = molecular target: T17, P1243_AMBAM (Amblyomma americanum, UniProt A0A0C9S461 26-123); assay: BLI
T17 sequence: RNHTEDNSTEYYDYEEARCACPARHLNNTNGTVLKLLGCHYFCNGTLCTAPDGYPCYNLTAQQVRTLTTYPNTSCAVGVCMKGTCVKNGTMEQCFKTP

[22] = molecular target: T18, P1180_AMBTR (Amblyomma triste, UniProt A0A023G6B6 26-116); assay: BLI
T18 sequence: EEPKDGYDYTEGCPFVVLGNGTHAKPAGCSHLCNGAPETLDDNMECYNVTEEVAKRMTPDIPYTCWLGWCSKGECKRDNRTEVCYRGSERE

[23] = molecular target: T19, P672_RHIPU (Rhipicephalus pulchellus, UniProt L7MC74 22-125); assay: BLI
T19 sequence: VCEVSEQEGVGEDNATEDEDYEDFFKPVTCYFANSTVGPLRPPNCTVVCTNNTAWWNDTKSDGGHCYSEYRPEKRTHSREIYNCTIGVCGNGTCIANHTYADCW

[24] = molecular target: T20, P546_AMBCA (Amblyomma cajennense, UniProt A0A023FBW7 22-118); assay: BLI
T20 sequence: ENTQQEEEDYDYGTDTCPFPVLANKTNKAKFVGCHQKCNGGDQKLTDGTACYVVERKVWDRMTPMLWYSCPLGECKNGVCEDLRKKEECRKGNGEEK

[25] = molecular target: T17, P1243_AMBAM; assay: BLI; remark: listed apart in the source
[26] = molecular target: T21, CXCL4_HUMAN (human, UniProt P02776 32-101); assay: BLI [Cont.]
T21 sequence: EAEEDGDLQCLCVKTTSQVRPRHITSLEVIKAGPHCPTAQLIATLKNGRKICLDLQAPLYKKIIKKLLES

Sequence of CXCL12_HUMAN (P48061 22-89 limits assumed): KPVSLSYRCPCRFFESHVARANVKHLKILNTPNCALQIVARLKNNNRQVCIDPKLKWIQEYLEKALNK

Row | Binder | % cells over threshold fluorescence [2] [%] | binding result [3] | binding result [5] | binding result [6] | binding result [7] | % cells over threshold fluorescence [8] [%] | binding result [11] | binding result [12] | other results
1 | B1 | 45 |  |  |  |  |  |  |  | % cells over threshold fluorescence [1]: 70%
2 | B2 |  | no binding (tested: 300 nM) | no binding (tested: 300 nM) | no binding (tested: 300 nM) | no binding (tested: 300 nM) | 29 |  |  | binding result [4]: no binding (tested: 300 nM); binding result [9]: no binding (tested: 300 nM)
3 | B3 |  | no binding (tested: 300 nM) | no binding (tested: 300 nM) | no binding (tested: 300 nM) | no binding (tested: 300 nM) | 53 |  |  | binding result [4]: no binding (tested: 300 nM); binding result [10]: no binding (tested: 300 nM); binding result [9]: no binding (tested: 300 nM)
4 | B4 |  |  |  |  |  |  |  |  | % cells over threshold fluorescence [1]: 75%
5 | B5 | 33 |  | no binding (tested: 300 nM) | no binding (tested: 300 nM) |  |  | no binding (tested: 300 nM) | no binding (tested: 300 nM) | % cells over threshold fluorescence [1]: 71%
6 | B6 |  | no binding (tested: 300 nM) | no binding (tested: 300 nM) |  | no binding (tested: 300 nM) | 24 |  |  | % cells over threshold fluorescence [13]: 66%
7 | B7 |  | no binding (tested: 300 nM) | no binding (tested: 300 nM) |  | no binding (tested: 300 nM) | 43 |  |  | 
8 | B8 | 55 |  | no binding (tested: 300 nM) | no binding (tested: 300 nM) | no binding (tested: 300 nM) |  | no binding (tested: 300 nM) | no binding (tested: 300 nM) | 
9 | B9 |  |  |  |  |  |  |  |  | Kd [14]: 32 nM; Kd [15]: 0.514 nM; Kd [16]: 41.2 nM; Kd [17]: 61 nM; Kd [18]: 5.4 nM; Kd [19]: 2.15 nM; Kd [20]: 120 nM; Kd [21]: 8.66 nM; Kd [22]: 98 nM; Kd [23]: 16 nM; Kd [24]: 90 nM; Kd [25]: 8.66 nM
10 | B10 | 37 |  | no binding (tested: 300 nM) | no binding (tested: 300 nM) | no binding (tested: 300 nM) |  | no binding (tested: 300 nM) | no binding (tested: 300 nM) | 
11 | B11 | 38 |  | no binding (tested: 300 nM) | no binding (tested: 300 nM) | no binding (tested: 300 nM) |  | no binding (tested: 300 nM) | no binding (tested: 300 nM) | binding result [26]: no binding (tested: 300 nM)
